Data: article PMC9609998

Columns and labels:
[1] = biological target: EGFR (on U87MG EGFR WT glioblastoma cells) (UniProt P00533); test: flow cytometry; conditions: U87 EGFR WT cells, 1 nM-5 µM aptamer; no/low signal on EGFR-negative LN319 cells; 2'-fluoro pyrimidines (2'F-RNA); Flow cytometry: 300,000 cells detached with 0.2 M EDTA, 30 min with Cy5-aptamer; tissue: selection buffer, 2% BSA +/- 100 µg/mL yeast tRNA block, 1 h on ice …
[2] = biological target: integrin α5β1 (on U87MG α5+ cells) (UniProt P08648+P05556); test: flow cytometry; conditions: 2'-fluoro pyrimidines (2'F-RNA); Flow cytometry: 300,000 cells detached with 0.2 M EDTA, 30 min with Cy5-aptamer; tissue: selection buffer, 2% BSA +/- 100 µg/mL yeast tRNA block, 1 h on ice …; cited from earlier work
Chain of integrin α5β1 (on U87MG α5+ cells) (P08648 42-1049, chain 1 of 2): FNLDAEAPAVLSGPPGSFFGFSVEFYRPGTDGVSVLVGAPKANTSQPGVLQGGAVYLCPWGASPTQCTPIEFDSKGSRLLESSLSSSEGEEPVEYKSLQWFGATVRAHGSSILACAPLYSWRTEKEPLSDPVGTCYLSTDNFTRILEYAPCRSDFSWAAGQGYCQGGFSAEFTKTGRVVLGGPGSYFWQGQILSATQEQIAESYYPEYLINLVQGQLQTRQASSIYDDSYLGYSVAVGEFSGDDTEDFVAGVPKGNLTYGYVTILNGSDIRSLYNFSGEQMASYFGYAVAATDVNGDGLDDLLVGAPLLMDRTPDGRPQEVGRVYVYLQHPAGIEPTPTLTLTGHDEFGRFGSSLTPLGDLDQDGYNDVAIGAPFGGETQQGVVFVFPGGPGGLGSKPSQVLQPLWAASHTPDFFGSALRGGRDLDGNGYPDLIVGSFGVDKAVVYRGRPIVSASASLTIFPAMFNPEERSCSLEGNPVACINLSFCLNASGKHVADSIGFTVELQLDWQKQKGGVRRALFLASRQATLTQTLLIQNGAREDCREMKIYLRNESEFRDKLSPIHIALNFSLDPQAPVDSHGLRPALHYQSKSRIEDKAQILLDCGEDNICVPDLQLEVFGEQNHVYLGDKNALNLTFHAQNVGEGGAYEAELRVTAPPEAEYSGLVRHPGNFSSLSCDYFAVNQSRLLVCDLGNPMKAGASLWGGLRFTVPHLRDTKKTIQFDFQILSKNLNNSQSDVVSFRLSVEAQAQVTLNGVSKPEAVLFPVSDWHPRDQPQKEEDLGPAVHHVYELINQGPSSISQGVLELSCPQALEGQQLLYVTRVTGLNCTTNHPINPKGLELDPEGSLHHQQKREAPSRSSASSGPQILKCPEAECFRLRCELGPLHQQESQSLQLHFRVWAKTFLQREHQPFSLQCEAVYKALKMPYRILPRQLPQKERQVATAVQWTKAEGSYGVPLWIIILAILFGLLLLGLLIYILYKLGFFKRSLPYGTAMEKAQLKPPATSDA
Chain of integrin α5β1 (on U87MG α5+ cells) (P05556 21-798, chain 2 of 2): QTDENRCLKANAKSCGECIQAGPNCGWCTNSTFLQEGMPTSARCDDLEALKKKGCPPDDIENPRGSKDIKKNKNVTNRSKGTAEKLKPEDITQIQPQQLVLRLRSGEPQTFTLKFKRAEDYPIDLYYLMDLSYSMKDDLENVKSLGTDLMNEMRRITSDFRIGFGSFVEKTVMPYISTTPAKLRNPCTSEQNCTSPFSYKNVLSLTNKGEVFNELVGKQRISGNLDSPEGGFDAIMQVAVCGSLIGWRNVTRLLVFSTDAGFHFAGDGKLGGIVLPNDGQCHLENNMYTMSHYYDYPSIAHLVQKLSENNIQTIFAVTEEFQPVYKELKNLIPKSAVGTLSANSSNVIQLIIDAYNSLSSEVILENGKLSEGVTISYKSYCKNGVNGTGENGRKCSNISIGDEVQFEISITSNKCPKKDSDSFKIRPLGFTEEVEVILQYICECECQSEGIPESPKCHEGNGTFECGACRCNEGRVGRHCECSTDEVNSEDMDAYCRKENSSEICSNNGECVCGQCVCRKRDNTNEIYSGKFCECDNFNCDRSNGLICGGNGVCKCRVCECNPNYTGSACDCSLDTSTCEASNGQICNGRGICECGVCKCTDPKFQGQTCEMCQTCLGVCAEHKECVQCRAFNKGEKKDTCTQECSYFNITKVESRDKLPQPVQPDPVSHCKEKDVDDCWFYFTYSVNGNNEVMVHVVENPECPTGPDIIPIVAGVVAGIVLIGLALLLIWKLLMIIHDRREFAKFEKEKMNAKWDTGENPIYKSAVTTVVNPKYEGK

Row | Sequence | Kd [1] [µM] | Kd [2] [µM]
1 | GGACGGAUUUAAUCGCCGUAGAAAAGCAUGUCAAAGCCGGAACCGUCC [E07-Cy5] | 0.209 | –
2 | GGUUACCAGCCUUCACUGCGGACGGACAGAGAGUGCAACCUGCCGUGCCGCACCACGGUCGGUCACAC [H02-Cy5] | – | 0.278
